Laboratory results taken from patent publication US20250026849A1 (ARCELLX, published 2025).
Numbering of substitutions follows the chain as printed. One block for each binder: values may come before it.

Target: T1, CD123 (Homo sapiens (Human), UniProt P26951 19-305, limits assumed)
T1 construct: also called CD123-Signal
T1 sequence: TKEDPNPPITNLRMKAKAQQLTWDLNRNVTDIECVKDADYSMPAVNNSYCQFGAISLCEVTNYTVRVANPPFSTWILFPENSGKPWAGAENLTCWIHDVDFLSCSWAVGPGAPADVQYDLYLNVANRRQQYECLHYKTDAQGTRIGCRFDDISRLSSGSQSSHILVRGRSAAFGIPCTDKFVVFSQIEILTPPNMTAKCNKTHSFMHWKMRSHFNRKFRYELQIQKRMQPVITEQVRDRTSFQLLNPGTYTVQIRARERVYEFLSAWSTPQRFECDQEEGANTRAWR
Experiment: ELISA, format not described
Parameters: unit not given here

ELISA_avg: 8.9
B2: D domain SEQ ID NO: 703 (designed binder)
chain: MGSWYEFDARLDAIEERLYALGGSEAELAAFEFEIAGFEEALQWYKGKGNPEVEALLKEAEAITDELYAYRHN

ELISA_avg: 3.3
B5: D domain SEQ ID NO: 708 (designed binder)
chain: MGSWFEFEWRLDAIENRLNALGGSEAELAWFEYHIAAFEDSLQHYKGKGNPEVEALEWEAHAIQSELQAYRHN

ELISA_avg: 4.6
B6: D domain SEQ ID NO: 699 (designed binder)
chain: MGSWGEFMDRLEAIDYRLWALGGSEAELAWFESDIAEFEQELQMYKGKGNPEVEALWDEAMAIRDELFAYRHN

ELISA_avg: 6.2
B8: D domain SEQ ID NO: 760 (designed binder)
chain: MGSWVEFENRLEAIENRLWALGGSEAELAAFEKEIAAFESELQAYKGKGNPEVEWLREDAAQIRMMLQAYRHN

ELISA_avg: 4.1
B10: D domain SEQ ID NO: 723 (designed binder)
chain: MGSWYEFMVRLDAIEERLFALGGSEAELAAFEKEIAAFESELQAYKGKGNPEVEFLREEAASIRYHLQAYRHN

ELISA_avg: 3.7
B11: D domain SEQ ID NO: 747 (designed binder)
chain: B8 chain with N9S, E12A, N16H, W55E, D59Y, Q62E, M65D, M66W

ELISA_avg: 4.3
B12: D domain SEQ ID NO: 714 (designed binder)
chain: MGSWEEFHDRLMAIETRLWALGGSEAELAAFEKEIAAFESELQAYKGKGNPEVEWLRYEAADIRDYLQAYRHN

ELISA_avg: 4.5
B13: D domain SEQ ID NO: 738 (designed binder)
chain: B12 chain with E5V, H8W, M12W, T16D, W55H, Y58H, E59Y, D65V, Y66W

ELISA_avg: 7.6
B14: D domain SEQ ID NO: 748 (designed binder)
chain: B12 chain with E5W, H8E, D9H, M12F, T16D, W55F, Y58D, E59Y, D62E

ELISA_avg: 6.4
B18: D domain SEQ ID NO: 752 (designed binder)
chain: B12 chain with E5W, M12E, T16D, W55Y, Y58I, D65R, Y66Q

ELISA_avg: 8.7
B19: D domain SEQ ID NO: 742 (designed binder)
chain: MGSWIEFESRLWAIEDRLLALGGSEAELAAFEKEIAAFESELQAYKGKGNPEVEFLRLEAADIREDLQAYRHN

ELISA_avg: 6
B20: D domain SEQ ID NO: 761 (designed binder)
chain: B8 chain with V5Y, N9E, N16D, D59Q, Q62F, M65T

ELISA_avg: 12.2
B21: D domain SEQ ID NO: 722 (designed binder)
chain: B12 chain with E5F, H8L, M12D, T16E, Y58E, D62V, Y66S

ELISA_avg: 3.4
B24: D domain SEQ ID NO: 720 (designed binder)
chain: B12 chain with E5V, H8Y, M12D, T16H, W19D, Y58D, D62F, Y66M

ELISA_avg: 6
B26: D domain SEQ ID NO: 759 (designed binder)
chain: B8 chain with V5Y, N9W, E12D, E15Y, N16D, W19G, Q62E, M65A, M66L

ELISA_avg: 3.9
B28: D domain SEQ ID NO: 726 (designed binder)
chain: B10 chain with Y5V, M8E, V9Y, E15T, F19L, F55I, S62F, Y65Q, H66W

ELISA_avg: 4.2
B29: D domain SEQ ID NO: 715 (designed binder)
chain: B12 chain with E5V, H8R, M12D, D62E, D65M, Y66V

ELISA_avg: 6.2
B32: D domain SEQ ID NO: 719 (designed binder)
chain: B12 chain with E5Y, H8Y, M12D, T16W, Y58D, D62Q, Y66F

ELISA_avg: 9
B34: D domain SEQ ID NO: 727 (designed binder)
chain: B10 chain with Y5W, M8L, V9D, E16M, F55Y, S62L, Y65N, H66M

ELISA_avg: 4.8
B36: D domain SEQ ID NO: 757 (designed binder)
chain: B8 chain with V5Y, E12G, E15G, N16D, E58D, D59E, Q62Y, M65A, M66V

ELISA_avg: 6.1
B38: D domain SEQ ID NO: 755 (designed binder)
chain: B8 chain with V5Y, N16E, W55M, D59E, Q62F, M65D, M66W

ELISA_avg: 5.8
B41: D domain SEQ ID NO: 718 (designed binder)
chain: B12 chain with E5V, H8Y, M12Y, T16V, W19L, W55F, Y58Q, D62E, Y66W

ELISA_avg: 3.3
B43: D domain SEQ ID NO: 709 (designed binder)
chain: MGSWYEFDDRLEAIWDRLGALGGSEAELAAFEKEIAAFESELQAYKGKGNPEVEWLRETAADIRAELQAYRHN

ELISA_avg: 9.2
B44: D domain SEQ ID NO: 712 (designed binder)
chain: B43 chain with Y5T, D9R, E12D, G19F, T59E, A65D, E66Y

ELISA_avg: 3.2
B46: D domain SEQ ID NO: 749 (designed binder)
chain: B12 chain with E5Y, H8D, D9S, T16D, W55Y, Y58Q, D62E, D65M, Y66I

ELISA_avg: 4.1
B47: D domain SEQ ID NO: 744 (designed binder)
chain: B12 chain with H8E, M12W, T16D, W55I, E59D, D62Y, D65E, Y66I

ELISA_avg: 5.6
B50: D domain SEQ ID NO: 706 (designed binder)
chain: MGSWDEFDDRLEAIVDRLFALGGSEAELAMFEFEIAQFEHQLQYYKGKGNPEVEALRDEADAIWIELDAYRHN

ELISA_avg: 3
B51: D domain SEQ ID NO: 702 (designed binder)
chain: MGSWNEFWERLDAIEWRLFALGGSEAELAFFELDIAWFEEELQWYKGKGNPEVEALIFEAHAITLELDAYRHN

ELISA_avg: 3.3
B52: D domain SEQ ID NO: 701 (designed binder)
chain: MGSWYEFADRLDAIMDRLVALGGSEAELAYFEWEIAAFEEFLQMYKGKGNPEVEALDEEAEAIKDELMAYRHN

The next lines start with the binder.

B1: D domain SEQ ID NO: 704 (designed binder)
chain: MGSWDEFSERLDAIWGRLEALGGSEAELATFEFHIAEFEHELQYYKGKGNPEVEALQGEAAAIINELYAYRHN
ELISA_avg: 3.2

B3: D domain SEQ ID NO: 705 (designed binder)
chain: MGSWDEFWDRLDAIEDRLFALGGSEAELADFERVIAWFENDLQEYKGKGNPEVEALDNEADAIRIELHAYRHN
ELISA_avg: 3.9

B4: D domain SEQ ID NO: 700 (designed binder)
chain: MGSWEEFDDRLDAIEHRLWALGGSEAELADFEGSIAAFESWLQVYKGKGNPEVEALEAEAEAIADELWAYRHN
ELISA_avg: 4

B7: D domain SEQ ID NO: 745 (designed binder)
chain: B19 chain with S9D, W12Y, L19W, L58Y, D62E, E65Y, D66W
ELISA_avg: 4

B9: D domain SEQ ID NO: 711 (designed binder)
chain: B19 chain with S9V, W12D, E15W, L19F, F55Y, L58D, E65Q, D66S
ELISA_avg: 4.2

B15: D domain SEQ ID NO: 729 (designed binder)
chain: MGSWWEFESRLDAIFMRLTALGGSEAELAAFEKEIAAFESELQAYKGKGNPEVEDLREDAAFIREFLQAYRHN
ELISA_avg: 3.7

B16: D domain SEQ ID NO: 740 (designed binder)
chain: B19 chain with I5Y, S9E, W12Y, L19Y, L58Q, E65L, D66M
ELISA_avg: 11.5

B17: D domain SEQ ID NO: 750 (designed binder)
chain: B12 chain with E5Y, H8E, D9W, T16D, W55Y, Y58H, D62E, Y66V
ELISA_avg: 3.4

B22: D domain SEQ ID NO: 754 (designed binder)
chain: B12 chain with E5Y, H8E, D9E, M12W, T16E, W19Y, W55Y, D62W, Y66F
ELISA_avg: 5.4

B23: D domain SEQ ID NO: 728 (designed binder)
chain: B15 chain with S9D, F15E, M16Y, T19F, D55F, D59E, E65I
ELISA_avg: 4.9

B25: D domain SEQ ID NO: 741 (designed binder)
chain: B19 chain with I5T, S9W, W12Y, L19M, L58D, E65Q, D66Y
ELISA_avg: 4.2

B27: D domain SEQ ID NO: 753 (designed binder)
chain: B12 chain with E5Y, H8W, M12E, T16E, W55Y, Y58L, D65R, Y66I
ELISA_avg: 4.6

B30: D domain SEQ ID NO: 756 (designed binder)
chain: B8 chain with V5Y, N9Y, N16D, W55Y, D59E, Q62W, M65V, M66W
ELISA_avg: 6.2

B31: D domain SEQ ID NO: 743 (designed binder)
chain: MGSWFEFEDRLDAIWDRLWALGGSEAELAAFEKEIAAFESELQAYKGKGNPEVEFLRMDAAMIRYILQAYRHN
ELISA_avg: 5.1

B33: D domain SEQ ID NO: 716 (designed binder)
chain: B12 chain with E5M, H8I, M12D, T16H, W55F, Y58E, D62E, D65M
ELISA_avg: 4.3

B35: D domain SEQ ID NO: 721 (designed binder)
chain: B31 chain with E8V, D12T, W15Q, D16V, F55Y, M58E, D59E, M62L, I66S
ELISA_avg: 5.1

B37: D domain SEQ ID NO: 758 (designed binder)
chain: B31 chain with F5Y, D9H, W15Y, F55W, M58E, D59E, M62W, Y65L, I66W
ELISA_avg: 6.3

B39: D domain SEQ ID NO: 713 (designed binder)
chain: B43 chain with Y5T, D9M, E12D, G19F, W55E, T59E, D62T, A65G, E66V
ELISA_avg: 3.1

B40: D domain SEQ ID NO: 717 (designed binder)
chain: B10 chain with Y5T, M8V, V9W, E16W, F19E, S62E, Y65D, H66W
ELISA_avg: 4.2

B42: D domain SEQ ID NO: 739 (designed binder)
chain: B12 chain with E5Y, H8A, M12W, T16D, W55F, E59Y, D65W, Y66V
ELISA_avg: 4

B45: D domain SEQ ID NO: 746 (designed binder)
chain: B31 chain with F5Y, E8W, D12E, W15E, M58Y, D59S, M62E, I66Q
ELISA_avg: 4.2

B48: D domain SEQ ID NO: 751 (designed binder)
chain: B12 chain with E5Y, H8Y, D9N, M12D, T16D, W55Y, Y58Q, D65G, Y66Q
ELISA_avg: 11.3

B49: D domain SEQ ID NO: 707 (designed binder)
chain: MGSWEEFTIRLGAIYWRLFALGGSEAELANFEWFIAEFEYELQPYKGKGNPEVEALVIEANAIDGELQAYRHN
ELISA_avg: 3.3
